Laboratory results taken from PMC11358422.

Key:
Assay in all cases: ELISA
[1] = molecular target: T1, beta-casein / beta-casomorphin-7 (UniProt P02666); details: raw milk; 5' biotin; ELISA: suspension coated in 100 mM NaHCO3 pH 9.6, 5% CSA block, aptamer in Base Pair Aptamer Folding Buffer, washes 0.02% Tween-20 in PBS; microscopy: aptamer …
T1 sequence: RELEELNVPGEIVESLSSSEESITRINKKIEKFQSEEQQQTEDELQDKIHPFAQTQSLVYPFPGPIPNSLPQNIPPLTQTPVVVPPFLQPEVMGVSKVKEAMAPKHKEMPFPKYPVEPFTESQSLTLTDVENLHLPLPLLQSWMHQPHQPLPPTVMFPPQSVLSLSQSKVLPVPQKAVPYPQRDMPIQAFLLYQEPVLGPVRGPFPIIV

gluten (gliadin) (wheat) = details: wheat flour suspension; 5' biotin; ELISA: suspension coated in 100 mM NaHCO3 pH 9.6, 5% CSA block, aptamer in Base Pair Aptamer Folding Buffer, washes 0.02% Tween-20 in PBS; microscopy: aptamer …
[2] = molecular target: gelatin (collagen) (bovine skin) (UniProt P02453+P02465); details: gelatin suspension; 5' biotin; ELISA: suspension coated in 100 mM NaHCO3 pH 9.6, 5% CSA block, aptamer in Base Pair Aptamer Folding Buffer, washes 0.02% Tween-20 in PBS; microscopy: aptamer …
beta-lactoglobulin = molecular target: T2, beta-lactoglobulin (UniProt P02754); details: raw milk; 5' biotin; ELISA: suspension coated in 100 mM NaHCO3 pH 9.6, 5% CSA block, aptamer in Base Pair Aptamer Folding Buffer, washes 0.02% Tween-20 in PBS; microscopy: aptamer …
T2 sequence: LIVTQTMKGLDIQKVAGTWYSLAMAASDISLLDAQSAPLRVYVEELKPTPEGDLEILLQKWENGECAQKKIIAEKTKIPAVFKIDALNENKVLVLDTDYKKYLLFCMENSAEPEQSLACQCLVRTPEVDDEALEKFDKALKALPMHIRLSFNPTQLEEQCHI

[3] = test system: parvalbumin (trout ('fish traut')); details: fish trout suspension; 5' biotin; ELISA: suspension coated in 100 mM NaHCO3 pH 9.6, 5% CSA block, aptamer in Base Pair Aptamer Folding Buffer, washes 0.02% Tween-20 in PBS; microscopy: aptamer …
hemoglobin = hemoglobin (UniProt P69905+P68871); details: 5' biotin, ELISA: suspension coated in 100 mM NaHCO3 pH 9.6, 5% CSA block, aptamer in Base Pair Aptamer Folding Buffer, washes 0.02% Tween-20 in PBS, microscopy: aptamer …
hemoglobin, sequence (P69905 2-142, chain 1 of 2): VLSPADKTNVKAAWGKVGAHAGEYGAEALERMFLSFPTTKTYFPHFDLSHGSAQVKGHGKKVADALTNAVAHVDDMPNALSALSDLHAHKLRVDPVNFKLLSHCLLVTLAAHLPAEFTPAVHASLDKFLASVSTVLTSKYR
hemoglobin, sequence (P68871 2-147, chain 2 of 2): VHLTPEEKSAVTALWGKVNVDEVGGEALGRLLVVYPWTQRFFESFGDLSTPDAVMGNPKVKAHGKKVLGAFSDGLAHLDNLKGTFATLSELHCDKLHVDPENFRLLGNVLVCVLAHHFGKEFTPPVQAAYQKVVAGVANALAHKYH

gelatin (collagen) (bovine skin), sequence (P02453 whole entry, chain 1 of 2): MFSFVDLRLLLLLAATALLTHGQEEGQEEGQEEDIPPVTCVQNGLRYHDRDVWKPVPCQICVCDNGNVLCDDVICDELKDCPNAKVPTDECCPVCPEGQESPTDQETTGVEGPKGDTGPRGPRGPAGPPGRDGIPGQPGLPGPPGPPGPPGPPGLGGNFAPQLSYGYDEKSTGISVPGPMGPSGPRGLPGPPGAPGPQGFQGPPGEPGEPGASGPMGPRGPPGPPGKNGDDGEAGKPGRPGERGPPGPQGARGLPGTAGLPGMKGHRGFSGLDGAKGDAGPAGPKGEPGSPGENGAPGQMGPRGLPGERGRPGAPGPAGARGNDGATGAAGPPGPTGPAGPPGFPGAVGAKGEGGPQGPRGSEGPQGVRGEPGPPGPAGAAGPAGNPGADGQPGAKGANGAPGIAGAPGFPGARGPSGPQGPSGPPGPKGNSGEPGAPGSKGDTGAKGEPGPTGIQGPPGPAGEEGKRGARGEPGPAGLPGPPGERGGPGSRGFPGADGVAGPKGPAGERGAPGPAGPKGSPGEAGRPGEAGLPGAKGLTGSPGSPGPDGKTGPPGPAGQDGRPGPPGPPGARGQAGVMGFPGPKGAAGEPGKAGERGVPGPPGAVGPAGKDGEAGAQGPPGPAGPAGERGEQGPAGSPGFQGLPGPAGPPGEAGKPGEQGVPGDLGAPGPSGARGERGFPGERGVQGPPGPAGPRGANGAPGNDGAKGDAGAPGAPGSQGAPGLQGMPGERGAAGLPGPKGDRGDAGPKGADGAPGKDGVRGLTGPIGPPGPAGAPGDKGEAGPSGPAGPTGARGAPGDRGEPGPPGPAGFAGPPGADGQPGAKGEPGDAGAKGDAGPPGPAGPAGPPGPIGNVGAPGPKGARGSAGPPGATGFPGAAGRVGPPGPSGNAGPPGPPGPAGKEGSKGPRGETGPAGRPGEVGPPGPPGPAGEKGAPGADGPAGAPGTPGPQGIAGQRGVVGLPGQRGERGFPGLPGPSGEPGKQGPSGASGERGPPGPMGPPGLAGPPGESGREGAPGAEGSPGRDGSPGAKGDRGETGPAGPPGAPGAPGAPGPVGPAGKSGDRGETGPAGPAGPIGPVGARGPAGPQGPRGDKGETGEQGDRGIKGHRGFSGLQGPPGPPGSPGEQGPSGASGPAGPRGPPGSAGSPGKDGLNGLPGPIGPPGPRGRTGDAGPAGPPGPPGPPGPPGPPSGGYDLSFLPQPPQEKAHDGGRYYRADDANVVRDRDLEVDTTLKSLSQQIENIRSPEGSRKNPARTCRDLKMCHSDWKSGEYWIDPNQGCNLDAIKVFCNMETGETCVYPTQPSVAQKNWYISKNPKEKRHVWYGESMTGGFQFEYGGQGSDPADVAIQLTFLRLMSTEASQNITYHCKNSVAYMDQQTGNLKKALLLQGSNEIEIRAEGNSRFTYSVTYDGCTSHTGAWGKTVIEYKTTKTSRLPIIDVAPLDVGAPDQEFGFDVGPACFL
gelatin (collagen) (bovine skin), sequence (P02465 whole entry, chain 2 of 2): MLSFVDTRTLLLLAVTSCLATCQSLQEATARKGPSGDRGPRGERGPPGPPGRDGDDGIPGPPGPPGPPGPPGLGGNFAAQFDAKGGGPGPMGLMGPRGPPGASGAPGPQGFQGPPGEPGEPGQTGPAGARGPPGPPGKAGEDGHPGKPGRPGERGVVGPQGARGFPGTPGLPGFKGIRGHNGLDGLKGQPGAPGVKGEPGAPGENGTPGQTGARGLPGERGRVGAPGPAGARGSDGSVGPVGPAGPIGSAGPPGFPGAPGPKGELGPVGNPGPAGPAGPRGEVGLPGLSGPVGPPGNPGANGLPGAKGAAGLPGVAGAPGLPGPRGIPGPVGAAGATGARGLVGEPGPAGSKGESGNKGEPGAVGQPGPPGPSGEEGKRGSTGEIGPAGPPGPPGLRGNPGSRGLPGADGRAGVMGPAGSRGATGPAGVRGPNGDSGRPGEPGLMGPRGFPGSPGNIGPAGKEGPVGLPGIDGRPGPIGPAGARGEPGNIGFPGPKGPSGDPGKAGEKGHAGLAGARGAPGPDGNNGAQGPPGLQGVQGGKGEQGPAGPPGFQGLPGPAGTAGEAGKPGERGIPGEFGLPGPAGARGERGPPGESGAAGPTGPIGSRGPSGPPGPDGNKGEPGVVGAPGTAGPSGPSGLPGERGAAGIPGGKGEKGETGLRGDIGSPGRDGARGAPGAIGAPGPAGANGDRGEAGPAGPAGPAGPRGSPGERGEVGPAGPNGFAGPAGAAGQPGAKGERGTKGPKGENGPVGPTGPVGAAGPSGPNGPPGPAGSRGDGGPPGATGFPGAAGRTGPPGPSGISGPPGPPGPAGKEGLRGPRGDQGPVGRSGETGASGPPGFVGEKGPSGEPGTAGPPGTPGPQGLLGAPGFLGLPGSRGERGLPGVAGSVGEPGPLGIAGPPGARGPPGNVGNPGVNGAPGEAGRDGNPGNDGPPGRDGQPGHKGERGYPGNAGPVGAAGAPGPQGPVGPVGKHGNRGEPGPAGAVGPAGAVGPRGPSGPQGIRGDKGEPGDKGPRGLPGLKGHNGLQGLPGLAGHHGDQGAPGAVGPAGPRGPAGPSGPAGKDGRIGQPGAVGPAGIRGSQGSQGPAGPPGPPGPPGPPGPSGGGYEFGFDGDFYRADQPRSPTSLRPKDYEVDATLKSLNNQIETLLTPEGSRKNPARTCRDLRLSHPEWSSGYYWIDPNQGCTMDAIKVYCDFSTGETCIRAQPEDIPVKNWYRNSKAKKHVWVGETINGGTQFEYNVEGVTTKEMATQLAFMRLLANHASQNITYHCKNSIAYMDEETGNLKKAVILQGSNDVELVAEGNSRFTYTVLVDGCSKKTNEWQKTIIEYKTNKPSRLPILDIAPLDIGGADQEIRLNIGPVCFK

## ATCCGTCACACCTGCTCTATACACATTGTGTTTACTCCCAGTTTTTTAGACTTATGGTGTTGGCTCCCGTAT [seqU5]
[1]
  binding signal: 0.51 OD405

## CTAGGCGAAATATAGCTACAACTGTCTGAAGGCACCCAAT [Gli 1]
Gluten (gliadin) (wheat)
  binding signal: 0.577 OD405

## ATCCGTCACACCTGCTCTAGACGAATATTGTATCCTCATTAGATCAAAAACGGGTGGTGTTGGCTCCCGTAT [CTx 2R (CTx 2R-2h)]
[2]
  binding signal: 0.615 OD405

## TTTTTGGTTGACGGCAGTCGGCGGTATGCGCATATCGTGTTGGTA [D1]
[2]
  binding signal: 0.4 OD405

## CCAGTCTCCCGTTTACCGCGCCTACACATGTCTGAATGCC [Gli 4]
Gluten (gliadin) (wheat)
  binding signal: 0.519 OD405

## CGACGATCGGACCGCAGTACCCACCCACCAGCCCCAACATCATGCCCATCCGTGTGTG [BLG14]
beta-lactoglobulin
  binding signal: 0.394 OD405

## TTTTTTTTGCCAAAGGAGGCGAGAGATAAAAGATTGCGAATCCATTCG [Par1]
[3]
  binding signal: 0.412 OD405

## ACGCACACCAGAGACAAGTAGCCCCCCAAACGCG [G15 T1]
hemoglobin; signal at MilliQ control level
  binding signal: 0.015 OD405

## TTAGCGAGCTGCACACACAATGGACTCGTCATACCGTGCTGTTT [HA]
hemoglobin
  binding signal: 0.471 OD405

## GGCAGGAAGACAAACACCAGGTGAGGGAGACGACGCGAGTGTTAGATGGTAGCTGTTGGTCTGTGGTGCTGT [Hb]
hemoglobin
  binding signal: 0.388 OD405
